Source: patent US20120020988A1 (Hoffmann-La Roche, published 2012)
Like-named read-outs stand apart in the source and are kept apart here.

T1: human TSLPR (on cells) (human, UniProt Q9HC73 23-371)
T1 sequence: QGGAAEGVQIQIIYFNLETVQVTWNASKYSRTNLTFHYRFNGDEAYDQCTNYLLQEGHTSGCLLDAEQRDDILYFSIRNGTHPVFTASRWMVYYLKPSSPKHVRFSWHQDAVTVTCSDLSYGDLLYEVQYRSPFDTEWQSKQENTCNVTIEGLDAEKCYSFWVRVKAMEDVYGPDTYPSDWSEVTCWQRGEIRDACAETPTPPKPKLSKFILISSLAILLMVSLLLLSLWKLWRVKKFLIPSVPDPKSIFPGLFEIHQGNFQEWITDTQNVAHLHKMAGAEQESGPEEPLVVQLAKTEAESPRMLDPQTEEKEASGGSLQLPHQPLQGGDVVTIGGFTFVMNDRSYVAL

T2: TSLPR-ECD (extracellular domain of TSLPR) (human, UniProt Q9HC73 23-231)
T2 construct: Obtained by cleavage of a TSLPR-Fc fusion protein expressed in HEK cells; also called analyte 2
T2 sequence: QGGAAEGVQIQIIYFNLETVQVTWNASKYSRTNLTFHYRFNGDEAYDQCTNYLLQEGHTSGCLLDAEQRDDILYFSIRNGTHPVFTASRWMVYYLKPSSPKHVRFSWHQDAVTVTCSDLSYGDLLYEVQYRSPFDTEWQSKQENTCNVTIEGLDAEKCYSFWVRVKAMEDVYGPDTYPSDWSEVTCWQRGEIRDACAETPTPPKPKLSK

T3: Recombinant human TSLPR-Fc (human, UniProt Q9HC73 23-231)
T3 construct: also called recombinant human soluble TSLPR-Fc fusion protein; not shown: Fc part
T3 sequence: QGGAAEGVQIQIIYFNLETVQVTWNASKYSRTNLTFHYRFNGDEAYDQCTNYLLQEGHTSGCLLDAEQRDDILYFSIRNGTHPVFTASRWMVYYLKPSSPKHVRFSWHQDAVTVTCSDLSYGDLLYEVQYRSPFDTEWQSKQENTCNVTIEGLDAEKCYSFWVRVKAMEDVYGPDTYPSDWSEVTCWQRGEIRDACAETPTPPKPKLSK

T4: Cynomolgous TSLPR (on HEK293 cells) (Cynomolgous monkey)
T4 construct: also called Cyno-TSLPR-HEK293; HEK-Cyno-TSLPR
T4 chain: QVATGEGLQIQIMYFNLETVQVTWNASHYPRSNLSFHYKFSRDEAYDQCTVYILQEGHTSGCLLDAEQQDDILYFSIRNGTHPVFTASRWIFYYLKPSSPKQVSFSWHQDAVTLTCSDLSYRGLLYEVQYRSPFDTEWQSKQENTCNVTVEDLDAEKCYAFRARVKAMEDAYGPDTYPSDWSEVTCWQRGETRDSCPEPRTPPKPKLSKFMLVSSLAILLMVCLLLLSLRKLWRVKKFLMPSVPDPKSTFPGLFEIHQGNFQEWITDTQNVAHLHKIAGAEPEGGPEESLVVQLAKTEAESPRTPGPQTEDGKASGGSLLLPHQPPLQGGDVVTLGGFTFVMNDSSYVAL


Tests used:
human TSLPR (on cells) [1] = biological target: T1, human TSLPR (on cells); test: cell-based or functional assay
human TSLPR (on cells) [2] = biological target: T1, human TSLPR (on cells); test: FACS on BA/F3 cells stably overexpressing human TSLPR and IL-7Rα
Description: (§1) BA/F3-TSLPR/IL7Rα or Cyno-TSLPR-HEK293 cells were starved from TSLP overnight, harvested by centrifugation, washed once in PBS and re-suspended in FACS buffer (PBS/5% FCS) at 10⁶/ml. 100 μl of cell suspension were incubated in a 96-well round-bottom plate well together with 100 μl of anti-TSLPR antibody solution for 45 minutes on ice. After three washes with FACS buffer, cells were re-suspended in a solution of PE-coupled anti-hamster-F(ab)2 (Dianova, Hamburg, Germany, #127-115-160) (1:200 in FACS buffer) and incubated for 30 minutes on ice. After three further washes cells were re-suspended in 200 μl of FACS buffer and measured on a FACSCanto™ flow cytometer (10,000 cells, flow rate 3).

[3] = biological target: T2, TSLPR-ECD (extracellular domain of …); test: SPR (Biacore 3000), antibody captured by anti-IgG, TSLPR-ECD as analyte, 25 °C, 1:1 Langmuir fit
Description: The binding properties of monoclonal anti-TSLPR antibodies and according to WO 2007/112146 were analyzed by surface plasmon resonance (SPR) technology using a Biacore 3000 instrument. The affinity was determined using an assay setup with capturing antibodies. These capturing antibodies (goat anti-human-IgG, goat anti-hamster-IgG) were immobilized on the surface of a CM5 biosensorchip using amine coupling chemistry. The capturing antibodies were injected in sodium acetate buffer, pH 5.0 at a concentration of 5 μg/ml aiming for a surface density of approx 1000 RU. Remaining reactive groups were inactivated by an injection of 1 M ethanolamine/HCl pH 8.5. Running buffer was HBS-P. The anti-TSLPR antibodies (analyte 1) were diluted in HBS-P to a concentration of 25 nM and injected at a flow rate of 5 μl/min for 3 minutes, resulting in a binding signal of 100-400RU dependent on the antibodies applied. The extracellular domain of TSLPR, TSLPR-ECD, obtained by cleavage of a TSLPR-Fc fusion protein expressed in HEK cells (analyte 2), was injected in concentrations ranging from 0-50 nM at a flow rate of 20 μl/min. The contact time (association phase) was 3 min for TSLPR followed by 5 minutes of dissociation. Regeneration solution 10 mM glycine HCl pH1.5 or 10 mM glycine HCl pH1.7 was injected twice at a flow rate of 10 μl/min for 1 min to remove any bound protein after each binding cycle. All interactions were performed at 25° C. (standard temperature). Signals were detected at a detection rate of 1 signal/second. The signals from a reference flow cell (FC1: same capturing antibody and addition of control antibody) and from blank buffer injections were subtracted and data were evaluated. All binding curves were fitted to a 1:1 Langmuir binding model. Association rate constant (ka), dissociation rate constant (kd) and the dissociation equilibrium constant (KD) were calculated accordingly.

[4] = biological target: T3, Recombinant human TSLPR-Fc; test: blocking ELISA: antibody on coated TSLPR-Fc, then TSLP + IL7Rα-Fc; TSLP binding detected
Description: Recombinant human TSLPR-Fc was coated to 96-well Nunc Maxisorp™ plate wells by incubating 50 μl of a 0.2 μg/ml solution of TSLPR-Fc in PBS per well for 1 h at RT. Subsequently the wells were blocked with 1% Crotein™ C in PBS (blocking buffer) for 1 h at RT, followed by two washes with wash buffer (ice-cold PBS/0.05% TWEEN® 20). 50 μl of anti-TSLPR antibody solution (antibodies and according to WO 2007/112146) were then added to the wells and incubated for 2 h at 4° C., followed by four wash steps. After addition of 50 μl of a mixture of human recombinant TSLP (12.5 ng/ml) and human recombinant IL7Rα-Fc (1 μg/ml) in blocking buffer, the plate was shaken for 1 h at 4° C., followed by further four wash steps. TSLP binding was detected by incubation with 50 μl of biotinylated anti-TSLP antibody (0.08 μg/ml in blocking buffer), followed by four washes and incubation with 50 μl of streptavidin-HRP (0.25 μg/ml in blocking buffer) per well. After another four washing steps, color was developed by incubation with 50 μl of 3,3,5,5-Tetramethylbenzidine substrate, followed by addition of 50 μl of 1 N HCl. Absorbance was read out at 450 and 620 nm.

[5] = biological target: T4, Cynomolgous TSLPR (on HEK293 cells); test: FACS on HEK293 cells transiently transfected with Cynomolgous TSLPR
Description: as §1

human TSLPR (on cells) [6] = biological target: T1, human TSLPR (on cells); test: cell-based or functional assay; remark: listed apart in the source
human TSLPR (on cells) [7] = biological target: T1, human TSLPR (on cells); test: cell-based or functional assay; remark: listed apart in the source
[8] = biological target: TSLPR-ECD (extracellular domain of TSLPR) (human) (UniProt Q9HC73); test: SPR (Biacore 3000), antibody captured by anti-IgG, TSLPR-ECD as analyte, 25 °C, 1:1 Langmuir fit

Binder	IC50 DC assay (example 7), TARC secretion (human TSLPR (on cells) [1]) [µg/mL]	IC50 proliferation (example 4) (human TSLPR (on cells) [1]) [µg/mL]	EC50 (human TSLPR (on cells) [2]) [µg/mL]	Kd [3] [nM]	IC50 [4] [µg/mL]	EC50 [5] [µg/mL]	IC50, IL-5 release in Th2 polarization assay (human TSLPR (on cells) [6]) [nM]	IC50, IL-13 release in Th2 polarization assay (human TSLPR (on cells) [6]) [nM]	IC50, TARC secretion by human dendritic cells stimulated with TSLP (human TSLPR (on cells) [6]) [nM]	average IC50, mast cell cytokine production (IL-13, IL-5, GMCSF) (human TSLPR (on cells) [6]) [nM]	IC50 proliferation (example 4) (human TSLPR (on cells) [7]) [µg/mL]	Kd [8] [nM]
TSLPR-012_189, CDR grafted (antibody, V domains shown, Humanized (CDR grafted) variant of hamster TSLPR-012; human kappa and human IgG1 or IgG4(S228P,L235E) appear only as embodiments) VH: QVQLVESGGGLVKPGGSLRLSCAASGFSITTSGYYWTWIRQFPGKGLEWMGYIGYNSKTYYNPALKSRITISRDNAKNSLYLQMNSLRAEDTAVYYCARSLYGGYKDAFDSWGQGTLVTVSS VL: EIVMTQSPATLSVSPGERATLSCRASQSIGTSLHWYQQKPGQAPRLLIKFASRSITGIPARFSGSGSGTEFTLTISSLQSEDFAVYYCQQSPGFPPTFGQGTKLEIKR	0.023	0.025	0.0149	0.6	0.0136	0.0103	–	–	–	–	–	–
TSLPR-012_75, CDR grafted (antibody, V domains shown, Humanized (CDR grafted) variant of hamster TSLPR-012; human kappa and human IgG1 or IgG4(S228P,L235E) appear only as embodiments) VH: QVQLVESGGGLVKPGGSLRLSCAASGFSITTSGYYWTWIRQFPGKGLEWMGYIGYNSKTYYNPALKSRITISRDNAKNSLYLQMNSLRAEDTAVYYCARSLYGGYKDAFDSWGQGTLVTVSS VL: EIVLTQSPDFQSVTPKEKVTITCRASQSIGTSLHWYQQKPDQSPKLLIKFASRSISGVPSRFSGSGSGTDFTLTINSLEAEDAATYYCQQSPGFPPTFGQGTKLEIKR	0.042	0.026	0.0157	0.5	0.0134	0.0108	–	–	–	–	–	–
1D6.C9 (WO2007/112146) (antibody, from another filing, V domains shown) VH: QIQLGQSGPELKKPGETVKISCKASGYTFTTYGMSWVKQAPGKGLQWMGWINTYSGVPRYADDFKGRFAFSLETSASTAYLQIYNLKNEDTATYFCTREGFITTVVGAAGRFVYWGQGTLVTVSA VL: DIVMTQSHKFMSTSVGDRVSITCKASQDVGTAVAWYQQKPGQSPKLLIYWASTRHTGVPDRFTGSGSGTDFTLTLNNVQSEDLADYFCQQYSTYPTFGSGTKLELKR	–	–	–	–	0.0152	–	–	–	–	–	0.084	2.97
TSLPR-012_166, CDR grafted (antibody, V domains shown, Humanized (CDR grafted) variant of hamster TSLPR-012; human kappa and human IgG1 or IgG4(S228P,L235E) appear only as embodiments) VH: QVQLQESGPGLVKPSQTLSLTCTVSGFSITTSGYYWSWIRQHPGKGLEWIGYIGYNSKTYYSPSLKSRVTISRDTSKNQFSLKLSSVTAADTAVYYCARSLYGGYKDAFDSWGQGTLVTVSS VL: DIQMTQSPSSLSASVGDRVTITCRASQSIGTSLHWYQHRPGETPKLLIKFASRSISGVPSRFSGSGSGTDFTLTISSLQPEDFATYYCQQSPGFPPTFGQGTKLEIKR	0.086	0.034	0.0118	2.45	0.0122	0.0086	–	–	–	–	–	–

The remaining lines, values ahead:

IC50 DC assay (example 7), TARC secretion (human TSLPR (on cells) [1]) [µg/mL]	IC50 proliferation (example 4) (human TSLPR (on cells) [1]) [µg/mL]	EC50 (human TSLPR (on cells) [2]) [µg/mL]	Kd [3] [nM]	IC50 [4] [µg/mL]	EC50 [5] [µg/mL]	IC50, IL-5 release in Th2 polarization assay (human TSLPR (on cells) [6]) [nM]	IC50, IL-13 release in Th2 polarization assay (human TSLPR (on cells) [6]) [nM]	IC50, TARC secretion by human dendritic cells stimulated with TSLP (human TSLPR (on cells) [6]) [nM]	average IC50, mast cell cytokine production (IL-13, IL-5, GMCSF) (human TSLPR (on cells) [6]) [nM]	IC50 proliferation (example 4) (human TSLPR (on cells) [7]) [µg/mL]	Kd [8] [nM]	Binder
0.046	0.037	0.0133	0.87	0.0104	0.0097	1.62	2.57	2.4	0.04 to 0.06	–	–	TSLPR-012_141, CDR grafted (antibody, V domains shown, Humanized (CDR grafted) variant of hamster TSLPR-012; human kappa and human IgG1 or IgG4(S228P,L235E) appear only as embodiments) VH: QVQLVESGGGLVKPGGSLRLSCAASGFSITTSGYYWTWIRQFPGKGLEWMGYIGYNSKTYYNPALKSRITISRDNAKNSLYLQMNSLRAEDTAVYYCARSLYGGYKDAFDSWGQGTLVTVSS VL: DIQMTQSPSSLSASVGDRVTITCRASQSIGTSLHWYQQKPGKAPKLLIKFASRLQSGVPSRFSGSGSGTDFTLTISSLQPEDFATYYCQQSPGFPPTFGQGTKLEIKR
0.129	0.026	0.0156	0.25	0.0088	0.0118	–	–	–	–	–	–	TSLPR-012 (hamster) (antibody, V domains shown, Parent Armenian hamster monoclonal antibody; the hamster constant regions are not; also called TSLP-012; hamster antibody TSLPR-012) VH: QIQLQESGPGLVKPSQSLSLTCSVTGFSITTSGYYWTWIRQFPGKKLEWMGYIGYNSKTYYNPSLKSRISITRDTSKNQFLLHLNSVTTEDTATYYCARSLYGGYKDAFDSWGQGTLVTVSS VL: DVVLTQTPATLSAIPGERVTMTCKASQSIGTSLHWYQHRPNETPRLLIKFASRSITGIPSRFSGSGSGTDFTLGINNLEAEDFAIYYCQQSPGFPPTFGSGTKLEINR
